Source: the Immune Epitope Database (IEDB)
pIC50, pKd: −log10 of the molar value. Each block holds one sequence with its values, some of them ahead of it.

Legend:
[1] = target: HLA-A*02:01; experiment: IEDB peptide-MHC binding, purified MHC/competitive/fluorescence; ≥ and ≤ were set here for values at or beyond the usual limits of such assays; conditions: source organism: Zaire ebolavirus
[2] = target: HLA-A*11:01; experiment: as above
[3] = target: HLA-B*39:01; experiment: IEDB peptide-MHC binding, purified MHC/direct/fluorescence; filed as Kd, often an IC50 or EC50 that approximates it; ≥ and ≤ were set here for values at or beyond the usual limits of such assays
[4] = target: HLA-A*03:01; experiment: IEDB peptide-MHC binding, purified MHC/competitive/fluorescence; ≥ and ≤ were set here for values at or beyond the usual limits of such assays
[5] = target: HLA-A*24:02; experiment: as above
[6] = target: HLA-A*69:01; experiment: IEDB peptide-MHC binding, purified MHC/direct/fluorescence; filed as Kd, often an IC50 or EC50 that approximates it; ≥ and ≤ were set here for values at or beyond the usual limits of such assays
[7] = target: HLA-A*02:19; experiment: as above; conditions: source organism: Orthohantavirus sangassouense
[8] = target: HLA-A*02:01; experiment: as above
[9] = target: HLA-A*02:11; experiment: as above; conditions: source organism: Orthohantavirus sangassouense
[10] = target: HLA-A*02:12; experiment: as above; conditions: source organism: Orthohantavirus sangassouense
[11] = target: HLA-B*58:01; experiment: as above
[12] = target: HLA-B*15:17; experiment: as above
[13] = target: HLA-B*57:01; experiment: as above
[14] = target: HLA-A*24:02; experiment: IEDB peptide-MHC binding, purified MHC/competitive/radioactivity; filed as Kd, often an IC50 or EC50 that approximates it; ≥ and ≤ were set here for values at or beyond the usual limits of such assays
[15] = target: HLA-B*57:01; experiment: as above; conditions: source organism: Dengue virus 2 Jamaica/1409/1983
[16] = target: HLA-B*53:01; experiment: as above
[17] = target: HLA-A*26:01; experiment: IEDB peptide-MHC binding, purified MHC/direct/fluorescence; filed as Kd, often an IC50 or EC50 that approximates it; ≥ and ≤ were set here for values at or beyond the usual limits of such assays; conditions: source organism: Escherichia coli O157:H7
[18] = target: HLA-B*15:01; experiment: as above; conditions: source organism: Escherichia coli O157:H7
[19] = target: HLA-A*31:01; experiment: as above; conditions: source organism: Escherichia coli O157:H7
[20] = target: HLA-B*07:02; experiment: as above; conditions: source organism: Escherichia coli O157:H7
[21] = target: HLA-A*03:01; experiment: as above; conditions: source organism: Escherichia coli O157:H7
[22] = target: HLA-A*01:01; experiment: as above; conditions: source organism: Escherichia coli O157:H7
[23] = target: HLA-B*08:01; experiment: as above; conditions: source organism: Escherichia coli O157:H7
[24] = target: HLA-B*40:01; experiment: as above; conditions: source organism: Escherichia coli O157:H7
[25] = target: HLA-A*11:01; experiment: as above; conditions: source organism: Escherichia coli O157:H7
[26] = target: HLA-B*27:05; experiment: as above; conditions: source organism: Escherichia coli O157:H7
[27] = target: HLA-B*44:02; experiment: as above; conditions: source organism: Escherichia coli O157:H7
[28] = target: HLA-B*39:01; experiment: IEDB peptide-MHC binding, purified MHC/competitive/fluorescence; filed as Kd, often an IC50 or EC50 that approximates it; ≥ and ≤ were set here for values at or beyond the usual limits of such assays; conditions: source organism: Homo sapiens
[29] = target: HLA-A*26:01; experiment: as above; conditions: source organism: Homo sapiens
[30] = target: HLA-B*51:01; experiment: as above; conditions: source organism: Homo sapiens
[31] = target: HLA-B*46:01; experiment: as above; conditions: source organism: Homo sapiens
[32] = target: HLA-B*15:17; experiment: as above; conditions: source organism: Homo sapiens
[33] = target: HLA-B*27:03; experiment: as above; conditions: source organism: Homo sapiens
[34] = target: HLA-B*18:01; experiment: as above; conditions: source organism: Homo sapiens
[35] = target: HLA-B*57:01; experiment: as above; conditions: source organism: Homo sapiens
[36] = target: HLA-A*03:01; experiment: as above
[37] = target: HLA-B*15:01; experiment: IEDB peptide-MHC binding, purified MHC/competitive/radioactivity; filed as Kd, often an IC50 or EC50 that approximates it; ≥ and ≤ were set here for values at or beyond the usual limits of such assays
[38] = target: HLA-A*23:01; experiment: as above; conditions: source organism: Dengue virus 1 Brazil/97-11/1997
[39] = target: HLA-A*69:01; experiment: IEDB peptide-MHC binding, purified MHC/competitive/fluorescence; filed as Kd, often an IC50 or EC50 that approximates it; ≥ and ≤ were set here for values at or beyond the usual limits of such assays; conditions: source organism: Homo sapiens
[40] = target: HLA-B*15:01; experiment: as above; conditions: source organism: Homo sapiens
[41] = target: HLA-B*07:02; experiment: IEDB peptide-MHC binding, purified MHC/competitive/radioactivity; filed as Kd, often an IC50 or EC50 that approximates it; ≥ and ≤ were set here for values at or beyond the usual limits of such assays; conditions: source organism: Dengue virus 2 Jamaica/1409/1983
[42] = source organism: Zaire ebolavirus
[43] = source organism: Vaccinia virus Copenhagen
[44] = source organism: Sudan ebolavirus
[45] = source organism: Entamoeba histolytica HM-1:IMSS
[46] = source organism: Dengue virus 2 Jamaica/1409/1983
[47] = source organism: Escherichia coli O157:H7
[48] = source organism: Dengue virus 1 Brazil/97-11/1997
[49] = source organism: Burkholderia mallei
[50] = source organism: Marburg virus - Musoke, Kenya, 1980
[51] = source organism: Vibrio parahaemolyticus

Sequence: ATISTSPQS
- pIC50 [1]: ≤ 3.97
- pIC50 [2, 42]: 4.76

Sequence: FHDSNVKNL
- pKd ([3]; source organism: Influenza A virus (A/chicken/Nakorn-Patom/Thailand/CU-K3/2004(H5N1))): 6.77

Sequence: FHFFVHTLL
- pKd ([3]; source organism: Camelpox virus M-96): 7.28

- pKd ([3]; source organism: Escherichia coli O157:H7 str. EC869): 8.00
Sequence: FRAICTNGL

Sequence: FYRSGTETK
- pIC50 [4, 43]: 4.19
- pIC50 [5, 43]: ≤ 4.00
- pIC50 [2, 43]: 4.36

Sequence: GEESASSGK
- pIC50 [2, 42]: ≤ 3.50

Sequence: GIYTEGLMH
- pIC50 [4, 44]: 4.81
- pIC50 [2, 44]: 5.45

Sequence: GLYPAQIKA
- pKd ([6]; source organism: Amur virus): ≤ 4.70
- pKd [7]: ≤ 4.70
- pKd ([8]; source organism: Amur virus): 8.46
- pKd [9]: 7.48
- pKd [10]: 6.90

Sequence: GTNTTTEDH
- pIC50 [2, 42]: ≤ 4.11

Sequence: ISTLPTEQF
- pKd [11, 45]: 8.66
- pKd [12, 45]: 8.19
- pKd [13, 45]: 6.62

Sequence: ITAAAWYLW
- pKd [14, 46]: 7.67
- pKd [15]: 9.32
- pKd [16, 46]: 6.76
- pKd ([12]; source organism: dengue virus type 2): 8.17

Sequence: KIDNNTFVR
- pIC50 [4, 44]: 4.50
- pIC50 [2, 44]: 5.56

Sequence: KSMRDQRKG
- pIC50 ([4]; source organism: Variola virus): ≤ 3.92
- pIC50 ([2]; source organism: Variola virus): 4.32

- pKd [17]: ≤ 4.70
- pKd [6, 47]: ≤ 4.70
- pKd [18]: ≤ 4.70
- pKd [19]: 6.48
- pKd [20]: ≤ 4.70
- pKd [21]: ≤ 4.70
- pKd [11, 47]: 7.32
- pKd [22]: ≤ 4.70
- pKd [23]: ≤ 4.70
- pKd [12, 47]: 7.56
- pKd [24]: ≤ 4.70
- pKd [13, 47]: 6.67
- pKd [8, 47]: ≤ 4.70
- pKd [25]: ≤ 4.70
- pKd [26]: ≤ 4.70
- pKd [27]: ≤ 4.70
Sequence: KTTIKFHPW

Sequence: LITGGRRTR
- pIC50 [4, 42]: ≤ 3.95
- pIC50 [1]: ≤ 3.96
- pIC50 [2, 42]: ≤ 4.03

- pKd [28]: ≤ 4.70
- pKd [29]: ≤ 4.70
- pKd [30]: ≤ 4.70
- pKd [31]: ≤ 4.70
- pKd [32]: ≤ 4.70
- pKd [33]: ≤ 4.70
- pKd [34]: ≤ 4.70
- pKd [35]: ≤ 4.70
- pKd ([8]; source organism: Homo sapiens): 9.70
Sequence: LLAMTFWPA

Sequence: LLLKERGLH
- pKd ([36]; source organism: Vibrio parahaemolyticus AQ3810): ≤ 4.70

Sequence: LMLLPTALAF
- pKd [37, 48]: 9.09
- pKd [14, 48]: 5.35
- pKd [38]: 7.14
- pKd [16, 48]: 4.81

- pKd [28]: ≤ 4.70
- pKd [29]: ≤ 4.70
- pKd [39]: ≤ 4.70
- pKd [40]: ≤ 4.70
- pKd [30]: ≤ 4.70
- pKd [31]: ≤ 4.70
- pKd [32]: ≤ 4.70
- pKd [33]: ≤ 4.70
- pKd [34]: ≤ 4.70
- pKd [35]: ≤ 4.70
Sequence: LMQCWQLLA

- pKd ([36]; source organism: Homo sapiens): 6.34
Sequence: LSSSVPSQK

Sequence: RAMDTYHRW
- pKd [11, 49]: 7.98
- pKd [12, 49]: 8.68
- pKd [13, 49]: 7.31

Sequence: RVIGYILFF
- pKd [11, 50]: 5.69
- pKd [12, 50]: 6.89

Sequence: RVIQLSRKTF
- pKd [37, 48]: 7.34
- pKd [38]: 5.48

Sequence: RVMVMVGATM
- pKd [37, 46]: 8.67
- pKd [41]: 7.21

Sequence: SGYYSTTIR
- pIC50 [4, 42]: 5.78
- pIC50 [5, 42]: ≤ 3.46
- pIC50 [2, 42]: 6.04

Sequence: STTLFKIDN
- pIC50 [2, 44]: ≤ 3.83

- pKd [29]: ≤ 4.70
- pKd [39]: ≤ 4.70
- pKd [40]: ≤ 4.70
- pKd [30]: ≤ 4.70
- pKd [31]: ≤ 4.70
- pKd [33]: ≤ 4.70
- pKd [35]: ≤ 4.70
Sequence: WMFRIRIIL

Sequence: YGVKNLFDW
- pKd [11, 50]: ≤ 5.30
- pKd [12, 50]: 6.81
- pKd [13, 50]: 7.42

Sequence: YSLGQGPVW
- pKd [11, 51]: 8.59
- pKd [12, 51]: ≥ 9.00
